# According to patent US20190330296A1:
# Biological target: human GLP-1 receptor (human) (UniProt P43220)
# Assay: cell-based or functional assay
# Chain of human GLP-1 receptor (human) (P43220 24-463): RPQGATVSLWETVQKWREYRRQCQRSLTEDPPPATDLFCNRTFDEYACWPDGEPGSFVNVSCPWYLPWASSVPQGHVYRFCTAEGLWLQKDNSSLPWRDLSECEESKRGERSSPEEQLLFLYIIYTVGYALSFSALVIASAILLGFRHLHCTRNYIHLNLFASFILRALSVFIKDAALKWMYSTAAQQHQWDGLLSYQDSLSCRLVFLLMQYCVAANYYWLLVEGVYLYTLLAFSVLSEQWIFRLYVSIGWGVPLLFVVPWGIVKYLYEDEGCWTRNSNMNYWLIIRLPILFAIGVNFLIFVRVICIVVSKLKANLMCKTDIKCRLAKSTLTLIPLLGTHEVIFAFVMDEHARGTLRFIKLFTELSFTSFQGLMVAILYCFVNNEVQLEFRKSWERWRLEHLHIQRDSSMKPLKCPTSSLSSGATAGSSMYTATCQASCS
substance,measurement,value
Dulaglutide (Fc fusion),Human GLP1R EC50,0.035 nM
